Like-named read-outs stand apart in the source and are kept apart here.
Columns and labels:
Ol1WSCP [1] = assay: SEC
Ol1WSCP [2] = assay: SEC; remark: listed apart in the source

Ol1WSCP (natural protein)
stoichiometry N (Ol1WSCP [1]): 4 | stoichiometry N (Ol1WSCP [2]): 4

Reference: paper PMC7054047
